Experimental data reported in patent publication US20200317768A1 (published 2020).
Residue numbers refer to the chain shown, from its start. Names and notes keep the numbering of the source.

T1: human FcγRIIaR extracellular domain, His-tagged (human, UniProt P12318 34-217)
T1 construct: also called human FcγRIIa (type R); FcgRIIaR; not shown: C-terminal His-tag
T1 chain: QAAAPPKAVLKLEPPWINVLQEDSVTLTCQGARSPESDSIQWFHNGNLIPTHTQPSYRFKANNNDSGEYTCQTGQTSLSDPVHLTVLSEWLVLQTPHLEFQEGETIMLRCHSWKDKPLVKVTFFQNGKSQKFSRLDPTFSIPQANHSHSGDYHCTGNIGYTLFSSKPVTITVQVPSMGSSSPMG

T2: human FcγRIIb extracellular domain, His-tagged (human, UniProt P31994 43-217)
T2 construct: also called FcgRIIb; not shown: C-terminal His-tag
T2 sequence: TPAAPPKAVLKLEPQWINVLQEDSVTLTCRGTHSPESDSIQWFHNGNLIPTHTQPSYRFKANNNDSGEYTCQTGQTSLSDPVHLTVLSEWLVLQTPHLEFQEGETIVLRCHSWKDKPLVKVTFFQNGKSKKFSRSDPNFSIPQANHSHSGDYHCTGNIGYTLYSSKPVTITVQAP

T3: cynomolgus monkey FcγRIIa1 extracellular domain, His-tagged (cynomolgus monkey)
T3 construct: also called cyno FcγRIIa1; cynoFcgRIIa1; not shown: C-terminal His-tag
T3 chain: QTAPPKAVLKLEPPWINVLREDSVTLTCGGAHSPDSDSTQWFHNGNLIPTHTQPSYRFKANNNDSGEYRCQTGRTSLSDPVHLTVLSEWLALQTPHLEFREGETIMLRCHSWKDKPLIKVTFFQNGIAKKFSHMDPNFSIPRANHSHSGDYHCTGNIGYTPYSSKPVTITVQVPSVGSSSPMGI

T4: cynomolgus monkey FcγRIIa2 extracellular domain, His-tagged (cynomolgus monkey)
T4 construct: also called cyno FcγRIIa2; cynoFcgRIIa2; not shown: C-terminal His-tag
T4 chain: T3 chain with P95T, T121A, I127K, A128S, K130N, D135N, R142Q

T5: cynomolgus monkey FcγRIIa3 extracellular domain, His-tagged (cynomolgus monkey)
T5 construct: also called cyno FcγRIIa3; cynoFcgRIIa3; not shown: C-terminal His-tag
T5 chain: T3 chain with P95T, T121A, A128S, H133P, D135N

T6: cynomolgus monkey FcγRIIb extracellular domain, His-tagged (cynomolgus monkey)
T6 construct: also called cyno FcγRIIb; cynoFcγRIIb; not shown: C-terminal His-tag
T6 chain: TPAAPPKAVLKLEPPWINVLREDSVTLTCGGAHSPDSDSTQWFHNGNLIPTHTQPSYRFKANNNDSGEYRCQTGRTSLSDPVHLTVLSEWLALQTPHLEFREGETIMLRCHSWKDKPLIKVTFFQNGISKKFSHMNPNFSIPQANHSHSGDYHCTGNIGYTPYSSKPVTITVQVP

T7: cynomolgus monkey FcγRIIIaS extracellular domain, His-tagged (cynomolgus monkey, UniProt Q8SPW2 21-206 at identity 1.00))
T7 construct: also called cyno FcγRIIIaS; cynoFcγRIIIaS; not shown: C-terminal His-tag
T7 chain: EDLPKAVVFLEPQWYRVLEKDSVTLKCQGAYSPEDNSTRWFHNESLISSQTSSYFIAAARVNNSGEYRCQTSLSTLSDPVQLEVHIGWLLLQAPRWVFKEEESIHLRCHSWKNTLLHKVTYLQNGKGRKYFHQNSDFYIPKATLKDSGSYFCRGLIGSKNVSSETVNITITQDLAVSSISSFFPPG

T8: human FcγRIIaH extracellular domain, His-tagged (human, UniProt P12318 34-217)
T8 construct: also called human FcγRIIa (type H); FcgRIIaH; not shown: C-terminal His-tag
T8 sequence: T1 chain with R134H

B1: M103205H795-MY066/M103202L889-SK1 (antibody, human IgG1, kappa)
heavy: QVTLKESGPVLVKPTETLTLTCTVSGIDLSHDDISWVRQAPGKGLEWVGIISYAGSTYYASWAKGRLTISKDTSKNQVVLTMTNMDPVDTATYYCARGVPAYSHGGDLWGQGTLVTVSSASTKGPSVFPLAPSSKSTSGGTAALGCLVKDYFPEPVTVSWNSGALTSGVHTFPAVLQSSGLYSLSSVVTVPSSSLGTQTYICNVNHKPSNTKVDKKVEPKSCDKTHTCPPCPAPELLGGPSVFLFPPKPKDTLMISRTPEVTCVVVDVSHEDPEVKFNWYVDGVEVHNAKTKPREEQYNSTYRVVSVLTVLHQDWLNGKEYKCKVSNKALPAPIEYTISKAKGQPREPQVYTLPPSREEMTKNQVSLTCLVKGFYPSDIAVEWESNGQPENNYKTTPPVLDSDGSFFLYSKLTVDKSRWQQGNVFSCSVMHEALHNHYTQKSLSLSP
light: DIVMTQSPATLSLSPGERATLSCTSSQSVYHANWLSWFQQKPGQPPKLLIYWASTLAYGVPSRFSGSGSGTDFTLTISSLQPEDAATYYCAGGYGGGRYAFGQGTKVEIKRTVAAPSVFIFPPSDEQLKSGTASVVCLLNNFYPREAKVQWKVDNALQSGNSQESVTEQDSKDSTYSLSSTLTLSKADYEKHKVYACEVTHQGLSSPVTKSFNRGEC
notes: Substitution introduced into M103205H795-SG1 and expressed with M103202L889-SK1 as light chain; also called K334Y variant of MS1032LO06-SG1
B2: M103205H795-MY067/M103202L889-SK1 (antibody, human IgG1, kappa)
heavy: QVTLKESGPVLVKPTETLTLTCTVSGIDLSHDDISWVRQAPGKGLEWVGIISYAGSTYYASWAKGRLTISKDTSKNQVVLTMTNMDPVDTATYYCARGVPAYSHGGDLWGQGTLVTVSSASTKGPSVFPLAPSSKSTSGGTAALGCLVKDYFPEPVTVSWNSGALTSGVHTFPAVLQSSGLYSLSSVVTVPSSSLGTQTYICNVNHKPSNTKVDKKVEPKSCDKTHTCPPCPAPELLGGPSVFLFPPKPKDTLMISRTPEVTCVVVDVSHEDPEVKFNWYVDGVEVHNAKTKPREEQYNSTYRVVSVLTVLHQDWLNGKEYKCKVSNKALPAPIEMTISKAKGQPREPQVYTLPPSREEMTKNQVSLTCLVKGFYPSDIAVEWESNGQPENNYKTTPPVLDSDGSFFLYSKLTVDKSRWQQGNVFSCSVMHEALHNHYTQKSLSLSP
light: B1 light
notes: Substitution introduced into M103205H795-SG1 and expressed with M103202L889-SK1 as light chain; also called K334M variant of MS1032LO06-SG1
B3: M103205H795-MY015/M103202L889-SK1 (antibody, human IgG1, kappa)
heavy: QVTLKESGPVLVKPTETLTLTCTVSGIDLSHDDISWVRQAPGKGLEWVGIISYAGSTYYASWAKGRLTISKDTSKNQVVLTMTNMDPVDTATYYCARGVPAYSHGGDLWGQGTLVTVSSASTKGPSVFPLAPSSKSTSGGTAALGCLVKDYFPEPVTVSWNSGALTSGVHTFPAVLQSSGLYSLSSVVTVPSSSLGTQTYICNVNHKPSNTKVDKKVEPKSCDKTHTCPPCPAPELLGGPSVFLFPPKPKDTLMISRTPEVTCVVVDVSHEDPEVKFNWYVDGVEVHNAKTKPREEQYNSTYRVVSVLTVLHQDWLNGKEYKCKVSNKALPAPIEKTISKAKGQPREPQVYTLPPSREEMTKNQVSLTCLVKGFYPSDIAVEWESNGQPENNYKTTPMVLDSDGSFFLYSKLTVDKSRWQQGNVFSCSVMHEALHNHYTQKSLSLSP
light: B1 light
notes: Substitution introduced into M103205H795-SG1 and expressed with M103202L889-SK1 as light chain; also called P396M variant of MS1032LO06-SG1

Target: T1, human FcγRIIaR extracellular domain, …
Test: SPR (BIACORE), antibody captured on chip, FcγR as analyte, 25 °C; KD of SG1 divided by KD of the variant
Protocol: (§1) After the measurement, the antibody captured on the chip was washed off by allowing reaction with 10 mM glycine-HCl, pH1.5 and 25 mM NaOH so that the chip was regenerated and used repeatedly. The sensorgrams obtained as measurement results were analyzed by the 1:1 Langmuir binding model using the BIACORE® Evaluation Software to calculate the binding rate constant ka (L/mol/s) and dissociation rate constant kd (l/s), and the dissociation constant KD (mol/L) was calculated from these values. […] Regarding such interactions, KD values were calculated using the following 1:1 binding model described in BIACORE® T100 Software Handbook BR1006-48 Edition AE.
(§2) The behavior of interacting molecules according to the 1:1 binding model on BIACORE® can be described by Equation 1: Req=C·R max/(KD+C)+RI, wherein, Req is a plot of steady-state binding levels to analyte concentration. C is concentration, RI is bulk refractive index contribution in the sample, and Rmax is analyte binding capacity of the surface. When this equation is rearranged, KD can be expressed as Equation 2: KD=C·Rmax/(Req−RI)−C. KD can be calculated by substituting the values of Rmax, RI, and C into Equation 1 or Equation 2. From the current measurement conditions, RI=0, C=2 μmol/L can be used.

| KD fold for humanFcgRs (SG1 = 1) [fold] | Binder |
| --- | --- |
| 1.1 | B1 |
| 1.4 | B2 |
| 3.4 | B3 |

Target: T2, human FcγRIIb extracellular domain, …
Test: as above
Protocol: as §1, §2

| KD fold for humanFcgRs (SG1 = 1) [fold] | Binder |
| --- | --- |
| 1.6 | B1 |
| 1.6 | B2 |
| 2.9 | B3 |

Target: T9, human FcγRIIIaV extracellular domain, His-tagged (human, UniProt P08637 17-208)
T9 construct: also called human FcγRIIIa (V158 allotype); FcgRIIIaV; not shown: C-terminal His-tag
Test: as above
Protocol: as §1, §2

T9 sequence (P08637 17-208 F176V): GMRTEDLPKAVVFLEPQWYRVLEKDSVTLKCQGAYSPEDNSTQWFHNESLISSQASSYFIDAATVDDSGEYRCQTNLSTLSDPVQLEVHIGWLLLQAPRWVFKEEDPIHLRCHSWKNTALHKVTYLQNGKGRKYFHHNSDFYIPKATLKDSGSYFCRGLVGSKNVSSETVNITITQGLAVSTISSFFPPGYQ

| KD fold for humanFcgRs (SG1 = 1) [fold] | Binder |
| --- | --- |
| 2.79 | B1 |
| 4.05 | B2 |
| 3.38 | B3 |

Target: T3, cynomolgus monkey FcγRIIa1 …
Test: as above
Protocol: as §1, §2

| KD fold for cynoFcgRs (SG1 = 1) [fold] | Binder |
| --- | --- |
| 1.5 | B1 |
| 1.5 | B2 |
| 2.5 | B3 |

Target: T4, cynomolgus monkey FcγRIIa2 …
Test: as above
Protocol: as §1, §2

| KD fold for cynoFcgRs (SG1 = 1) [fold] | Binder |
| --- | --- |
| 2 | B1 |
| 2.2 | B2 |
| 3.4 | B3 |

Target: T5, cynomolgus monkey FcγRIIa3 …
Test: as above
Protocol: as §1, §2

| KD fold for cynoFcgRs (SG1 = 1) [fold] | Binder |
| --- | --- |
| 2.5 | B1 |
| 2.5 | B2 |
| 3.6 | B3 |

Target: T6, cynomolgus monkey FcγRIIb extracellular …
Test: as above
Protocol: as §1, §2

| KD fold for cynoFcgRs (SG1 = 1) [fold] | Binder |
| --- | --- |
| 1.3 | B1 |
| 1.6 | B2 |
| 3 | B3 |

Target: T7, cynomolgus monkey FcγRIIIaS …
Test: as above
Protocol: as §1, §2

| KD fold for cynoFcgRs (SG1 = 1) [fold] | Binder |
| --- | --- |
| 2.25 | B1 |
| 3.6 | B2 |
| 3.8 | B3 |

Target: T8, human FcγRIIaH extracellular domain, …
Test: as above
Protocol: as §1, §2

| KD fold for humanFcgRs (SG1 = 1) [fold] | Binder |
| --- | --- |
| 1.1 | B1 |
| 1.3 | B2 |
| 2.1 | B3 |
